Results taken from the nanobody polyreactivity screen of Harvey et al. (2022).

Assay: yeast display, Sf9 membrane polyspecificity reagent, FACS + sequencing; frameworks hold sequencing errors
How it was run: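 A synthetic nanobody library was expressed on Saccharomyces cerevisiae BJ5465 by galactose induction for 36–48 hours. The library was stained for 1 hour at 4 °C with 10% biotinylated, detergent-solubilized Sf9 membrane reagent and enriched with streptavidin microbeads before FACS. Low and high (top ~1%) gates were set on anti-HA fluorescence for expression and streptavidin fluorescence for reagent binding, and each polyreactivity label reflects the gate of origin.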

Row | Sequence | polyreactivity (PSR sort gate)
1 | QVQLQESGGGLVQASGSIFHEPTMGWYRQAPGKERELVAGISSGANTYYADSGKGRCTISRDNAKNTVYLQMNSLKPEDTAVYYCNARRRYSLTMDYWGHGTQVTVSS | high polyreactivity
2 | QVQLQESGGGLVQASGSLRLSCAASGNIFPDYFMGWYRLATGKEREFVANITGGSTTNYADSVKGRFTISRDNANNTVYLQIYSLKPEDTAVYYCAVYFGTVQHAYWGQGTQVTVSS | high polyreactivity
3 | QVQLQESGGGLVQSGGSLRLSCAASGFIFARNYMGWYRQAPGKERELVAGIGVGASTNYADSVKGRFTISRDNAKNTVYLQMNSLKPEDTAVYYCNARTGTTWQGYEYDYWGQGTQVTVSS | low polyreactivity
4 | QVQLQESGGGLVQVGGSLRLSFAASGTIFIYGFLGWNLQAPGKERELVASINLGGITNYADSVKGRFTISRDNAKNTVYLQMLSLKPEDTAVYYCAAYVVTGQNYGYWGQGTQVTVSS | low polyreactivity
5 | QVQLQESGGGLVQVGGSQRLSCAASGNIFYNYAMGWYRHAQGKEREFDATINHGTSINYADSVKGRFTISRDNAKNSVYLQMNSLKPEDTAVYYCAADLSWTDNLFYWGQGTQVTVSS | low polyreactivity
6 | QVQLQESGGGMVQAGGCLRLSCAASVTIFDPDYMGWYHQAPGKERELVASISLGRITYYADSVKGRFTINRDNAKNTVFLQMISLKPEDTAVYYCAAVTGLFYHPFYKYNYWGQGTQVTVSS | high polyreactivity
7 | QVQLQESGGGMVQAGGSLRLSCASSGYISWADYMGWSRQAPGKERELVDGIGYGSTTYYADSVKGRFNISRDNAKNTAYLQMISLKPEDTAVYYCAVGWYSVTAYNYWGQGTQVTVSS | low polyreactivity
8 | QVQLQESGGGMVQAGGSLRLSSAASGYISWADSMGWYRQAPGKERELVAGIGYGSTTYYADSVKGRFTISRDNAKNTAYLQMNSLKPEDTAVYYCSVGWYRDTAYKYWGQGTQVTVRS | low polyreactivity
9 | QVQLQESGGGQVHAGGSLRLSCAASGTIFLYAYMGWYRQAPGKERELVAAIDVGTTTNYADSVKGRFTISRDNAKNTVYLQMNSLKPEDTAVYYCAANLGYLDDLGYWGQGTQETVSS | low polyreactivity
10 | QVQLQESGGGQVQAGGSLRLSCAASGYISTHYFMGWYRQATGKDREFVAGISNGSITNYADSVKGRFTISRDNARNTVYLQMNSLKPEDTAVYYGAAYEWTYVRFGYWGQGTQVTVSG | high polyreactivity
11 | QVQLQESGGLVQAGGLRLSCAASGSVSYQEAMGWYRQAPGKERELVATISFGAKTNYADSVKGRFTISRDNAKNTVYLHINSLNPEDTAVYYCAAESLFDDYYGYWGQGTQVTVSS | low polyreactivity
12 | QVQLQESGGRLVQASGSIFHEPNMGWHRQAPGKERELVATISDGAITNYADSVKGRFTISRDNAKNTVYLQMNSLIPEDTAVYYCAATGGLNGALSRLEYWGQGTQVSVSS | high polyreactivity
13 | QVQLQESGGRLVQSGGSLRPSCAASGSISDGVPMGWNSQAPGDERELVATTVLGATTNNADSVKGRFTISRGNAKNTVYLQMNSLKPEETAVYYCAAPLRYDKGFSYWGQGTQVTVSS | low polyreactivity
14 | QVQLQESGSGLVQAGGSLRLSCAASGNISHYNDMGWYRQAPGKEREPVATINSGSITYYADSVKGRFTISRDNAKYTVYLQMNSLKPEDTAVYYCAVKQHGYFYLDYWGQGTQVTVSS | high polyreactivity
15 | QVQLQESGSGQVQAGGSLRLSCAASGAIFPAYLMGWYRQAPGKERELVAGISYGSITYCADSVKGRFNISRDNAKNTVYLQMNSLKPEDTAVYYCAVWRPGGDEYYYWGQGTQVTVSS | low polyreactivity
16 | QVQLQESRGGLVQAGGSLRLGFAASGNISDAGNKGWYRQAPGKEREFVAAIAAGSNTNYADSVKGRFTISRDNAKNTVYLQMNSLKPEDTAVFYCAVAYYARLQYEYWGQGTQVTVKS | low polyreactivity
17 | QVQLQESSGGLVQAGGSLRMSCAASGTIFHFHIMGWYRQAPGKVREFVAAISYGTSTYYADSVKGRFTISRDNAKNTVYLLMNRQKPEDTEVYYCAVYEYLEVYCWYWGQGTQGTVSS | low polyreactivity
18 | QVQLQESVGGLVQAGGSLRLSCAASGNIFPTDRMGWYRQAPGKELEFVATISHGGSTNYADSVKGRFTISRDNAKNTVYLQMNSLKPEDTAVFYCAVWSLGRWRHYYWGQGTQVTVSS | low polyreactivity
19 | QVQLQESVGGLVQAGGSLRLSCAASGYISSWYPMGWYRQAPGKEREFVATIAPVATTYYADSVKGRFTISRDYAKNSVYLQMNSLKPEDTAVYYCAAGPENNDFYSYWGQGTQVTVSS | low polyreactivity
20 | QVQLQESVGGLVQAGRSLRLSCAASGYISHADEMGWYRQAPGKEHELVASISNGGSTNYADSVKGRFTISRDNANNTVYLQMNSLKSVDTAVYFCAAWTGQVDIHYYWGQGTQVTVSS | low polyreactivity
21 | QVQLQESVGSLVQAGGSLRLSCAASGSISILQYMGWYRQAHGKELELVAGINWGATTYYADSVKGRLTTSRDYAKKTVYLQMNSLKPEDTAVYYCAVPTFYSYPVLYWGQGTQVTVSS | low polyreactivity
22 | QVQLQESVVCLVQALGSLRLSCAASGNISDYYDMGWYGHAPGKERKFVAGIDFGAITNYADSVKGRFTISRDNAKNTEYMQMSSLKPEDTAVYYCAAGVYDWYAYDYWGQGTQVTVSS | high polyreactivity

Row | Sequence | polyreactivity (PSR sort gate)
23 | QVQLQETRGGLDQAGDSLRLRCAASVSTLPVYTIARYRKAAVKEREFVAANTYTGGRTYYSDSVKGRFTISRDNAKNSVYLQMKSLKPDDTAVYYCAAEYGTYFVRYFAGASYRYGYWGQGTQVTVSS | low polyreactivity
24 | QVQLRESGAGGRQPAPELRGERQYFYWSADGLVSQAPGKEREFVAGIDRGTITNYADSVRGRFTISRDNAKKTVYLQMNSLKPEDTAVYYCAVPAYGDPSSYYWGQGTHVTVSS | high polyreactivity
25 | QVQLVASGGGLVQAGGSLRLSCAASGGTFFYNAKGWYRQAPGKERELVAAINGGTSTNYADSVKGRFTISRDNAKNTDYLQRNSLKPEDTAVYYCAAVYRRLGRSDWYDYWGQGTQVTVSS | low polyreactivity
26 | QVQLVASGGGLVQAGGSLRLSCAASGRIFDAYAMGWYRQAPGKERELVAAIDFSAGSTYYADSVKGRFTISRDNAQNTVYLQMNSLKPEDTAVYYCATRLGVLYDCWGQGTQVTVSS | low polyreactivity
27 | QVQLVASGGGLVQAGGSLRLSCAASGSNFAYNGMGWYRLAPGKERELVAAMSWNGGTTYYADSVKGRFTISRDKAKKNVYLQRNSLKPEDTAVYYCATDSYYFREYDYWGQGTQVTVSS | low polyreactivity
28 | QVQLVASGGGLVQAGGSLRLTCAASGSIFYAYAMGWSRQAPGKERELVASINSGGNTYYADSVKGRFTISRDNAKNTDYLQMNSLKAEATAVYYCAVDSKDNNDHWGQGTQVTVSS | low polyreactivity
29 | QVQLVASGGGLVQSGGSLRLSCAASGTTFGYYAMGWYIQAPGKERELVAAITKSGGSTFYAESVKGRFTISRDNAKNTVYLQMNSLKPEDTAVYYCAARYKGQYYRQGRHDYWGQGTQVTVSS | high polyreactivity
30 | QVQLVDSAGVLVQAGGSLSLICAASGRTYGIYAMGWYRQAPGKERELVADISSDASTSYAYSVKGRFTISRDNAKNTVYLQMNSLKAEDTAVYYCAADPGPYYDWGYYYWGQGTQVTVSS | low polyreactivity
31 | QVQLVDSGGALVQAGGSLRLSCAASGFIFRDNAMGWYRQAPGKESELVAAISSRGGSTYYADSVKGRFTISRDYAKNSVYLQMNRLKPEDTAVYYCAIRPYKSRVQMDCWGQGTQVTVSS | high polyreactivity
32 | QVQLVDSGGALVQAGGSLRLSCAASGPTFYTKTMGSYRQAPGKERELVAVISSGGGSTYYSDSVKGRFTISRDNAKNTVYLQMNSLKPEDTAVYYCAKRRGGQGNYWGQGPQVTVSS | high polyreactivity
33 | QVQLVDSGGALVQAGGSLSLSCAASGGKYDSYAMGWYRQAPGKERELVASISRSGSTNYADSVKGRFTISRDNAMNTVYLQMNSLNPEDTAVYYCAASVRGIRYDYWGQGTQVTVSS | low polyreactivity
34 | QVQLVDSGGCLVQAGGSLRLSCAASGFIFNFYAMGWYRQAPRQQREFVAAISTRGGSTYYADSVKGRFTISRDNAKNTVFLQMKSLKPEDTAVYYCAARRFWGSRRLDYWGQCTQVTVSS | high polyreactivity
35 | QVQLVDSGGDLVQAGGSLSLSCAASGRIFVYYAMGWYRQAPGTERELVAVITSVGSTYYADSVKGRFTISRDNAKNTVYLQMNSLKPEDTAVYYCAAEWEYYGFDYWGQGTQVTVSS | low polyreactivity
36 | QVQLVDSGGGIVQAGGSLRLSCAASGSTFVANAMGWYRQAPGKECEFVAAISRSGVRTYYADSVKGRFTISRDNAKNTVYLQMNSLKPEDTAVYYCAADGYWWTYSRYDYWGQGTQVTVSS | low polyreactivity
37 | QVQLVDSGGGIVQAGGSLRLSCAASGSTFYSYAMGWYTQAPGKERELVAAINRDGVSTYYSDSVKGRFTISRYNAKNTVYLLMNSLKPEDTAVYYCNARHQTLRSYRYDYWGQGTQVSVSS | low polyreactivity
38 | QVQLVDSGGGIVQEGGSRRLSCAASGSIFVNYAMGWYRQAPGKERELVAAITLRGVSTFYADSVKGRFTISRDNAKNTVYLQMNSLKPEETAVYYCAASSLRYRAYKSLFDYWGQGTQVTVSS | low polyreactivity
39 | QVQLVDSGGGLGQAVGILRLSCAASGNIFLYYAMGWYRQAPGKEREMVAAISWSGSSTYYADSVKGRFTISRYNAKNTVYLQMNSLKPEVTAVYYCNATTSSKDAFCFILVFGQGDYWGQGTQVSVSS | low polyreactivity
40 | QVQLVDSGGGLVQAGASLRLSCAASGRTFYPYAMGWYRQAPAKERELDAAISSKGGITYYADSVKGRFTISRDNAKNTVYLQMNSLNPEDTAVYYCAALYTGESGYWGQGTQVSVSS | high polyreactivity
41 | QVQLVDSGGGLVQAGGRLRISSAASGRISQGNAMGWYRQAPGKERELVAGISRSGGSTYYADSVKGRFTISRDNAKKTVYLQMNSLKPEDTAVYYCAARYYWRGYYWGQGTQVTVSS | high polyreactivity
42 | QVQLVDSGGGLVQAGGRLRLSCAASGNNFVEYAMGWYRPAPGKERELVAAITNSGGRTHYADSVKRRFTISRDNAKNTVYLQMNSLKPEDTGVYYCAAPTKYRSRRYYWGQGTLVTVSS | high polyreactivity
43 | QVQLVDSGGGLVQAGGRLRLSCAASGRTFSVNAMGWYRQAPGKERELVAAIRWRAGSTYYADSVKGRFTISRDNAKNTVYLQMNSLKPEDTAVYYCNAVTYGGRTLFPYDYWGQGTQVTVSS | high polyreactivity
44 | QVQLVDSGGGLVQAGGRLRLSCAASGSTFRLYAMGWYRQAPGKERELVAAISSNGVRTYYADSVKGRFTISRDNAKNTVYLQLNSLKPEDTAVYYCAARVYPAYPRGYDYWGQGTQVTVSS | high polyreactivity
